We go through five molecules from publication PMC6446905 (Science (New York, N.Y.), 2018).

Sequences and labels used below:
B1: TAF6 (natural protein)
chain: not shown
B3: TAF5 (natural protein, human (endogenous in HeLa), UniProt Q15542 1-800, looked up)
chain: MAALAEEQTEVAVKLEPEGPPTLLPPQAGDGAGEGSGGTTNNGPNGGGGNVAASSSTGGDGGTPKPTVAVSAAAPAGAAPVPAAAPDAGAPHDRQTLLAVLQFLRQSKLREAEEALRREAGLLEEAVAGSGAPGEVDSAGAEVTSALLSRVTASAPGPAAPDPPGTGASGATVVSGSASGPAAPGKVGSVAVEDQPDVSAVLSAYNQQGDPTMYEEYYSGLKHFIECSLDCHRAELSQLFYPLFVHMYLELVYNQHENEAKSFFEKFHGDQECYYQDDLRVLSSLTKKEHMKGNETMLDFRTSKFVLRISRDSYQLLKRHLQEKQNNQIWNIVQEHLYIDIFDGMPRSKQQIDAMVGSLAGEAKREANKSKVFFGLLKEPEIEVPLDDEDEEGENEEGKPKKKKPKKDSIGSKSKKQDPNAPPQNRIPLPELKDSDKLDKIMNMKETTKRVRLGPDCLPSICFYTFLNAYQGLTAVDVTDDSSLIAGGFADSTVRVWSVTPKKLRSVKQASDLSLIDKESDDVLERIMDEKTASELKILYGHSGPVYGASFSPDRNYLLSSSEDGTVRLWSLQTFTCLVGYKGHNYPVWDTQFSPYGYYFVSGGHDRVARLWATDHYQPLRIFAGHLADVNCTRFHPNSNYVATGSADRTVRLWDVLNGNCVRIFTGHKGPIHSLTFSPNGRFLATGATDGRVLLWDIGHGLMVGELKGHTDTVCSLRFSRDGEILASGSMDNTVRLWDAIKAFEDLETDDFTTATGHINLPENSQELLLGTYMTKSTPVVHLHFTRRNLVLAAGAYSPQ

What all share (experiment): cryo-EM structure
The data set “cryo-EM structure” concerns the molecule itself.
Another data set deals with T1, TAF4 (human (endogenous in HeLa), UniProt O00268 1-1085).
T1 sequence (looked up): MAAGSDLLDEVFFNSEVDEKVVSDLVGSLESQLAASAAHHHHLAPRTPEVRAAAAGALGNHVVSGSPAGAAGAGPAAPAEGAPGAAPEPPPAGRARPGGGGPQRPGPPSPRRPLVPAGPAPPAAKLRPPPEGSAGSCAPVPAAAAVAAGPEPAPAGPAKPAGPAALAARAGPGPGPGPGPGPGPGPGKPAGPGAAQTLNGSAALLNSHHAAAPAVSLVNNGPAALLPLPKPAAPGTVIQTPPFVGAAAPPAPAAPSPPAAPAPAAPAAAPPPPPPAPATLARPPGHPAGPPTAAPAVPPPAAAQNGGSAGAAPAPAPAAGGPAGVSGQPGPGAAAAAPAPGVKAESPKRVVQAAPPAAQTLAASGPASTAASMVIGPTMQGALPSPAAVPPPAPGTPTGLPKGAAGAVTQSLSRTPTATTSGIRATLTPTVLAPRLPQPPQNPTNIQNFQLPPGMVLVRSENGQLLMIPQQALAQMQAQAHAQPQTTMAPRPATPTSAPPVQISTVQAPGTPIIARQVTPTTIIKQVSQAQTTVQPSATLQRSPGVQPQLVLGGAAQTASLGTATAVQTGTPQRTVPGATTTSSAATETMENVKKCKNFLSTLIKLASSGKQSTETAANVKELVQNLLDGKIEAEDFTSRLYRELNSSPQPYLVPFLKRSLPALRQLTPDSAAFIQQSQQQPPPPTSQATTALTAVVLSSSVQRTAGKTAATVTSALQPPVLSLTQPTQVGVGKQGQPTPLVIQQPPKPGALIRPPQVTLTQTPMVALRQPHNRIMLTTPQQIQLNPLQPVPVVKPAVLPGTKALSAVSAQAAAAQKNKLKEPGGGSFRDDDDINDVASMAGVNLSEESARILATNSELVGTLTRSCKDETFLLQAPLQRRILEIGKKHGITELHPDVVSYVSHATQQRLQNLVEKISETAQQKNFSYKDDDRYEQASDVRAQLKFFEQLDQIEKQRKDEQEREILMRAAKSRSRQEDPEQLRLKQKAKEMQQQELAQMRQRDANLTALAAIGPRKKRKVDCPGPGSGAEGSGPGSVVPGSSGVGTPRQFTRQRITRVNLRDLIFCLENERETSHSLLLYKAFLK

The data set “TAF5” concerns the target B3.
The target of the data set “TAF6” is B1.
The target of the next data set is T2, TAF2 (human (endogenous in HeLa), UniProt Q6P1X5 1-1199).
T2 sequence (looked up): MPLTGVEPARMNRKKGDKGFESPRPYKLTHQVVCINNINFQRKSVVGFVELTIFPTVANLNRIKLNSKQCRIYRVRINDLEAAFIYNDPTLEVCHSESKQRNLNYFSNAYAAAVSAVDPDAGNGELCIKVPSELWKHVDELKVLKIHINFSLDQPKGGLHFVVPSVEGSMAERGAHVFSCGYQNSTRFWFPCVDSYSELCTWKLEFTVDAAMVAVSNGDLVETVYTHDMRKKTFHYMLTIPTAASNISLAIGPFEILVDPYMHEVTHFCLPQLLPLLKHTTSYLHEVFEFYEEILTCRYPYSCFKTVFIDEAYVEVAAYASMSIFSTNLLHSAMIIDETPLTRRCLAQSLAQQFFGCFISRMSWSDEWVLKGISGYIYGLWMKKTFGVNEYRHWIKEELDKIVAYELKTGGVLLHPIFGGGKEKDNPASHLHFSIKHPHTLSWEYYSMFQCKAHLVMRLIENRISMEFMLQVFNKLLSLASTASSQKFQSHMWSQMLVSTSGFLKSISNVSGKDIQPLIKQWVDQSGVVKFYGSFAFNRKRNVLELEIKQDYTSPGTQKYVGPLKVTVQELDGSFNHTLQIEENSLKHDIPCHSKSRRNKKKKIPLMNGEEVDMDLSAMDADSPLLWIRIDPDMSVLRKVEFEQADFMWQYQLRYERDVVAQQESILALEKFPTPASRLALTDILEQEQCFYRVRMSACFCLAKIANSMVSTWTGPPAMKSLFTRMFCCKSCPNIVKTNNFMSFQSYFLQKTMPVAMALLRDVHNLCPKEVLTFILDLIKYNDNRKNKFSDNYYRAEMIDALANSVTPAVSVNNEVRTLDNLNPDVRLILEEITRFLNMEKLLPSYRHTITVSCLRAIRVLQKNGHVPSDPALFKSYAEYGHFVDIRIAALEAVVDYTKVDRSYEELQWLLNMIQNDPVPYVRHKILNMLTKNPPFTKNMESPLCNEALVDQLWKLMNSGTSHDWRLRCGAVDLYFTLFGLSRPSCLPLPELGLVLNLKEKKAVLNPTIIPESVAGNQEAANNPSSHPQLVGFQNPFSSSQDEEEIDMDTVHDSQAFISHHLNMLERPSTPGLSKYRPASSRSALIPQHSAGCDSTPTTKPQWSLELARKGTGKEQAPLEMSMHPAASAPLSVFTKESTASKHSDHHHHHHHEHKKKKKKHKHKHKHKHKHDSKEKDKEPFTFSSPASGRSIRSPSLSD

Sequence of TAF6 (P49848 whole entry): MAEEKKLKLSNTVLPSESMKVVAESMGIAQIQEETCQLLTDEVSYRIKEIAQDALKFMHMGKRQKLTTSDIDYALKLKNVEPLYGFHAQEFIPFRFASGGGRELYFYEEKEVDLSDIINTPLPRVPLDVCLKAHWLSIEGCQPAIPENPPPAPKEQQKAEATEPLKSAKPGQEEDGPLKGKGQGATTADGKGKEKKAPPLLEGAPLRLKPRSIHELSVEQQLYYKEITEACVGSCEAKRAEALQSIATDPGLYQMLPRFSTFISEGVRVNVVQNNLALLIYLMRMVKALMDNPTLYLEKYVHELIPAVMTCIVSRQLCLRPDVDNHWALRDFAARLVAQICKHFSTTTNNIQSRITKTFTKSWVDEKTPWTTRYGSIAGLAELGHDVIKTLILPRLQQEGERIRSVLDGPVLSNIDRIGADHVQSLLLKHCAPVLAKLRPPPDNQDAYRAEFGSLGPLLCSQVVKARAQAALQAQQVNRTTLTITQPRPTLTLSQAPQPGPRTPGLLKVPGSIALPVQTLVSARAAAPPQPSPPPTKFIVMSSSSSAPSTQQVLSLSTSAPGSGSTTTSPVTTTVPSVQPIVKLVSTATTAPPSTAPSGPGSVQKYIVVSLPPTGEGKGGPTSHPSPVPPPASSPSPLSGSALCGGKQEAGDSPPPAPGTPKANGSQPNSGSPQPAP

The stoichiometry N is the number of molecules, sites or subunits per partner or assembly. As for B1, the “stoichiometry N” value in the data set “cryo-EM structure” is 2.

B2: TAF12 (natural protein, human (endogenous in HeLa), UniProt Q16514 1-161, looked up)
chain: MNQFGPSALINLSNFSSIKPEPASTPPQGSMANSTAVVKIPGTPGAGGRLSPENNQVLTKKKLQDLVREVDPNEQLDEDVEEMLLQIADDFIESVVTAACQLARHRKSSTLEVKDVQLHLERQWNMWIPGFGSEEIRPYKKACTTEAHKQRMALIRKTTKK
With B2, the binding result with TAF4 was “binds”.

Regarding B3, in the data set with TAF4, the binding result was “binds”.

B4: TAF9 (natural protein, human (endogenous in HeLa), UniProt Q16594 1-264, looked up)
chain: MESGKTASPKSMPKDAQMMAQILKDMGITEYEPRVINQMLEFAFRYVTTILDDAKIYSSHAKKATVDADDVRLAIQCRADQSFTSPPPRDFLLDIARQRNQTPLPLIKPYSGPRLPPDRYCLTAPNYRLKSLQKKASTSAGRITVPRLSVGSVTSRPSTPTLGTPTPQTMSVSTKVGTPMSLTGQRFTVQMPTSQSPAVKASIPATSAVQNVLINPSLIGSKNILITTNMMSSQNTANESSNALKRKREDDDDDDDDDDDYDNL
For the molecule B4, the binding result in the data set with TAF5 and in the data set with TAF6 was “binds” each time.

B5: TAF8 (natural protein, human (endogenous in HeLa), UniProt Q7Z7C8 1-310, looked up)
chain: MADAAATAGAGGSGTRSGSKQSTNPADNYHLARRRTLQVVVSSLLTEAGFESAEKASVETLTEMLQSYISEIGRSAKSYCEHTARTQPTLSDIVVTLVEMGFNVDTLPAYAKRSQRMVITAPPVTNQPVTPKALTAGQNRPHPPHIPSHFPEFPDPHTYIKTPTYREPVSDYQVLREKAASQRRDVERALTRFMAKTGETQSLFKDDVSTFPLIAARPFTIPYLTALLPSELEMQQMEETDSSEQDEQTDTENLALHISMEDSGAEKENTSVLQQNPSLSGSRNGEENIIDNPYLRPVKKPKIRRKKSLS
As to B5, the binding result with TAF2, with TAF5 and in the data set with TAF6 was “binds” each time.
